Assay results from patent US20190100563A1 (UNIVERSITY COURT OF THE UNIVERSITY OF EDINBURGH, published 2019).
Several values for one entry are separate records, joined by “and”; a condition that tells them apart may be missing. Equal entries are not always repeated.

B1: PspCN (cleaved, PspC residues 37-140, S. pneumoniae strain D39) (other)
chain: ATENEGSTQAATSSNMAKTEHRKAAKQVVDEYIEKMLREIQLDRRKHTQNVALNIKLSAIKTKYLRELNVLEEKSKDELPSEIKAKLDAAFEKFKKDTLKPGEK
B2: sPspCN (N-terminally hexaHis-SUMO-tagged PspC residues 37-140, S. pneumoniae strain D39) (other)
chain: B1 chain
notes: not shown: N-terminal hexaHis-SUMO tag from the pE-SUMOpro Kan vector

Columns and labels:
[1] = target: T1, Recombinant human CFH, wild-type sequence, from Pichia pastoris (human, UniProt P08603 19-1231); test: cell-based or functional assay
[2] = target: T2, Human complement factor H purified from plasma (human, UniProt P08603 19-1231); test: cell-based or functional assay
[3] = target: Human C3b (plasma-purified) (human, UniProt P01024 23-667; P01024 749-1663); test: SPR, amine-coupled C3 fragments on C1 chip
[4] = target: T3, Human C3d (plasma-purified) (human, UniProt P01024 1002-1303); test: SPR, amine-coupled C3 fragments on C1 chip
T3 construct: domain: TED; also called TED of C3b

[5] = target: Human C3c (plasma-purified) (human, UniProt P01024 23-667; P01024 749-954; P01024 1321-1663); test: SPR, amine-coupled C3 fragments on C1 chip
[6] = target: T4, CFH 8-9 (recombinant fragment, CCPs 8-9 of human CFH) (human, UniProt P08603 446-566); test: SPR, sPspCN on NTA/Ni2+ chip, CFH 8-9 concentration series, equilibrium method
T4 sequence: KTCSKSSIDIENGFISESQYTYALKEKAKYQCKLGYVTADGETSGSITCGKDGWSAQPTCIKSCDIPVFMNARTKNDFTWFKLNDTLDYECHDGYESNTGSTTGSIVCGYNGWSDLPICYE

[7] = target: T1, Recombinant human CFH, wild-type …; test: SPR, sPspCN on NTA/Ni2+ chip, rCFH as analyte, 1:1 kinetic fit
[8] = target: T5, CFH 10-15 (recombinant fragment, CCPs 10-15 of human CFH) (human, UniProt P08603 567-928); test: SPR, immobilised sPspCN
T5 sequence: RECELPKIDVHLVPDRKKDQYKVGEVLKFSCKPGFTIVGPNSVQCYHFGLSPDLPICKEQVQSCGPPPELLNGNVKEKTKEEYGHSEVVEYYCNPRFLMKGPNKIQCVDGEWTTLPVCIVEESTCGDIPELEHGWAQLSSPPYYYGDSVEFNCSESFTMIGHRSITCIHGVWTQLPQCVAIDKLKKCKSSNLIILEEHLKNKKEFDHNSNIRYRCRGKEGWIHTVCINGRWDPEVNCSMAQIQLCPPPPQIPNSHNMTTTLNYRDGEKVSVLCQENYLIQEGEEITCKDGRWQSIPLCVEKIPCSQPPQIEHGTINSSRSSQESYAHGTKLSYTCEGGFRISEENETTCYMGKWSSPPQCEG

[9] = target: T6, CFH 6-8 (recombinant construct corresponding to CFH CCPs 6-8) (human, UniProt P08603 321-509); test: SPR, sPspCN on NTA/Ni2+ chip
T6 sequence: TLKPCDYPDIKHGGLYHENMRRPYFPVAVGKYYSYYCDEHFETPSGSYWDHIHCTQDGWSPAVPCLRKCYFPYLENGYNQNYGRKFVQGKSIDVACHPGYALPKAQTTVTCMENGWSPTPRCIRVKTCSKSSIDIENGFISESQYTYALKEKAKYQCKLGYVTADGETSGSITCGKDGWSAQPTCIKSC

[10] = target: T7, CFH 8-15 (recombinant fragment, CCPs 8-15 of human CFH) (human, UniProt P08603 446-928); test: SPR, sPspCN on NTA/Ni2+ chip
T7 construct: also called CF8-15
T7 sequence: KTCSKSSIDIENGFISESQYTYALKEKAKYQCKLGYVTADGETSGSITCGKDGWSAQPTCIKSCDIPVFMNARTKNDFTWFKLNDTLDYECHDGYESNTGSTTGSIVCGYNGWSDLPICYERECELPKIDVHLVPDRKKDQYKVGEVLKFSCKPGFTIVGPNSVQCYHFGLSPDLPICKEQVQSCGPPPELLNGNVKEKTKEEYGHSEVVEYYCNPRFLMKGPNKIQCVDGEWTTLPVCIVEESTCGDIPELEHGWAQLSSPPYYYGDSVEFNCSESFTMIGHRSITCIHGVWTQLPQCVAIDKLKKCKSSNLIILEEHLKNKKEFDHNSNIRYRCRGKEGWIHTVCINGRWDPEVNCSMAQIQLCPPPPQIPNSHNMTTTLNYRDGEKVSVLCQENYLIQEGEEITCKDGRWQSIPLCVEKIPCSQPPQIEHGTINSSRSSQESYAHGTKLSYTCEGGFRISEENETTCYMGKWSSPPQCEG

[11] = target: T8, CFH 10-11 (recombinant fragment, CCPs 10-11 of human CFH) (human, UniProt P08603 567-686); test: SPR, sPspCN on NTA/Ni2+ chip
T8 sequence: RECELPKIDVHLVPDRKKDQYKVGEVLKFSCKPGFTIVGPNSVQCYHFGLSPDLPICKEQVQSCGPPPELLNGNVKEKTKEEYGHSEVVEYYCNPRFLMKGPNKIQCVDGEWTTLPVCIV

[12] = target: T2, Human complement factor H purified from …; test: SPR, sPspCN on NTA/Ni2+ chip, CFH as analyte, 1:1 kinetic fit
[13] = target: T2, Human complement factor H purified from …; test: not stated there (SPR in the examples)
[14] = target: T9, Recombinant human CFH (D1119G) from Pichia pastoris (human, UniProt P08603 19-1231); test: SPR, sPspCN on NTA/Ni2+ chip, rCFH-D1119G as analyte, 1:1 kinetic fit
T9 construct: also called rCFH-D1119G; rCFH (D1119G)

[15] = target: T7, CFH 8-15 (recombinant fragment, CCPs …); test: SPR, sPspCN on NTA/Ni2+ chip, CFH 8-15 as analyte, 1:1 kinetic fit

T2 sequence (P08603 19-1231 limits assumed): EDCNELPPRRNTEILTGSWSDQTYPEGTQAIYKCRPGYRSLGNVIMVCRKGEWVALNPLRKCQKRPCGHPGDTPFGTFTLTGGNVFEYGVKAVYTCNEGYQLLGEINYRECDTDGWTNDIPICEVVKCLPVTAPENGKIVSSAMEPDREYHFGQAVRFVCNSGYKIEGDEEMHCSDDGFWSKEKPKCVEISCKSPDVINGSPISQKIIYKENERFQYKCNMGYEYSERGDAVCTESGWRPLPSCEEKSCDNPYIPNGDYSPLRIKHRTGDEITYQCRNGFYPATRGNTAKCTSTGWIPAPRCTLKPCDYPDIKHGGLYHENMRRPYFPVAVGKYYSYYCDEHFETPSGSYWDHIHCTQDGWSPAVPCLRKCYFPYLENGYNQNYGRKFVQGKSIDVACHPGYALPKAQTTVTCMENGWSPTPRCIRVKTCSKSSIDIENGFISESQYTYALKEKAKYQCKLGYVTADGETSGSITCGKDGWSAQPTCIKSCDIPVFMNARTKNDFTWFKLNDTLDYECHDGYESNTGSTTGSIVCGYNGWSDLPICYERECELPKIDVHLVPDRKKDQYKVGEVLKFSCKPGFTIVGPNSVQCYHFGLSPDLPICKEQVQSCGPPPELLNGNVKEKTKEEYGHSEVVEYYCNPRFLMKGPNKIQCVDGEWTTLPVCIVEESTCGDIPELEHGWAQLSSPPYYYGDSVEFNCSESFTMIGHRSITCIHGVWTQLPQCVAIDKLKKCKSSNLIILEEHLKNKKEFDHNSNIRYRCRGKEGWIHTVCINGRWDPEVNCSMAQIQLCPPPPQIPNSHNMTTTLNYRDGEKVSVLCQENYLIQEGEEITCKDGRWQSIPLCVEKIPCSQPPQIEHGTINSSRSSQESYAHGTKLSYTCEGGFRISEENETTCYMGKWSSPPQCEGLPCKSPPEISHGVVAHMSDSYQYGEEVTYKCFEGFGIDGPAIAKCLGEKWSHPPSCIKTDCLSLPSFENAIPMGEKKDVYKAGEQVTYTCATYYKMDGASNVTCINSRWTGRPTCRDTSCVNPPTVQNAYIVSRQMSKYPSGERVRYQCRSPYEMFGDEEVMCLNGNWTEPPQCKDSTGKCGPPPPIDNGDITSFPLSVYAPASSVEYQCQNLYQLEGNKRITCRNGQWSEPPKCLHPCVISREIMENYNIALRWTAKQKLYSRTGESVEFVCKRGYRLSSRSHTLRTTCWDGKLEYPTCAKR
T1 sequence (P08603 19-1231 limits assumed): as above
T3 sequence (P01024 1002-1303 limits assumed): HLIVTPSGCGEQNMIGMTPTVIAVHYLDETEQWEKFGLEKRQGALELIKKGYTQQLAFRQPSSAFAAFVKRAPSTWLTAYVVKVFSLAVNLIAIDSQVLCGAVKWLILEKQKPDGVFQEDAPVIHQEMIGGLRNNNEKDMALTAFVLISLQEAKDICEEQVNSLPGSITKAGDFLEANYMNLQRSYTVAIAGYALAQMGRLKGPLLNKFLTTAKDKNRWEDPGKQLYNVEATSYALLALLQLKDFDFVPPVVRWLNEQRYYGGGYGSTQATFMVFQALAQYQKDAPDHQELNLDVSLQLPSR
Sequence of Human C3b (plasma-purified) (P01024 23-667 limits assumed, chain 1 of 2): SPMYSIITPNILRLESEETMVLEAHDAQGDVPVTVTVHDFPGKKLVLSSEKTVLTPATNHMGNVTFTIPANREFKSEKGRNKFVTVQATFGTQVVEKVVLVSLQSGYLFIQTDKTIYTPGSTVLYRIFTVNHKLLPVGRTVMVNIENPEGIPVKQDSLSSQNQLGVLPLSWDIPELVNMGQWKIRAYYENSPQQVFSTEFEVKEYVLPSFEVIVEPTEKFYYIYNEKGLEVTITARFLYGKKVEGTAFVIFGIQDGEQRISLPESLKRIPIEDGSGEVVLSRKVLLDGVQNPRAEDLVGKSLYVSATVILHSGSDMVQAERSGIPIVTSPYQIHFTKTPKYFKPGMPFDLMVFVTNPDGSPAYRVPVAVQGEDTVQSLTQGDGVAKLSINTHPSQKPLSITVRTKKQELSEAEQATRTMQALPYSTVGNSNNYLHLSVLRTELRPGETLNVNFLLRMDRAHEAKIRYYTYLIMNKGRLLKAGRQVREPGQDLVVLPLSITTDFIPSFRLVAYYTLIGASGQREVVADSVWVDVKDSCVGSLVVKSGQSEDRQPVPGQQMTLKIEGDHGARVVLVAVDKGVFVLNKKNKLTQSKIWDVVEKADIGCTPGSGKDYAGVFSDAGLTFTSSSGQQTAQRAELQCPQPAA
Sequence of Human C3b (plasma-purified) (P01024 749-1663 limits assumed, chain 2 of 2): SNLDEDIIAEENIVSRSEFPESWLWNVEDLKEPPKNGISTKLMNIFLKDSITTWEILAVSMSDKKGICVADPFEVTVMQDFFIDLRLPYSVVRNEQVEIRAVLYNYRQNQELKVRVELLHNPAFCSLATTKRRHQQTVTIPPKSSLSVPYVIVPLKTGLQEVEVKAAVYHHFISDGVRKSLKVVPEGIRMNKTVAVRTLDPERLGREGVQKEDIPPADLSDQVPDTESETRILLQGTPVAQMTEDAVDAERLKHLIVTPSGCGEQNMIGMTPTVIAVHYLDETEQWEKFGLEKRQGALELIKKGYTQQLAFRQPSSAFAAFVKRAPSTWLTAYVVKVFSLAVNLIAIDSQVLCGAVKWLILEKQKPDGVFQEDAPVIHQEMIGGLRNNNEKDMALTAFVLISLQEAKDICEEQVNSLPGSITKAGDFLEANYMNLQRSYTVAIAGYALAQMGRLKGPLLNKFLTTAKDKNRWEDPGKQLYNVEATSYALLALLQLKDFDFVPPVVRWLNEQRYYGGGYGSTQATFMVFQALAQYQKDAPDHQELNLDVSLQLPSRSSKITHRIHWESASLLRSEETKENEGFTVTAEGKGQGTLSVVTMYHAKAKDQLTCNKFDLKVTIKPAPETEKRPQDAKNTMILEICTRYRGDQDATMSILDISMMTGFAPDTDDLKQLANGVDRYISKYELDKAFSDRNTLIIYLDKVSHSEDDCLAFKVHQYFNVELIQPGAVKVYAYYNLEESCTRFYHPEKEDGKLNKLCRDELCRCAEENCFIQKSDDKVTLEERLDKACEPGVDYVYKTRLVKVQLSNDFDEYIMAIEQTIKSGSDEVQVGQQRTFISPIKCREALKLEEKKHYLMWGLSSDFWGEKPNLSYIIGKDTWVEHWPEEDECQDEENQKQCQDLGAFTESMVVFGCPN
Sequence of Human C3c (plasma-purified) (P01024 23-667, chain 1 of 3): as the sequence (P01024 23-667 limits assumed, chain 1 of 2) above
Sequence of Human C3c (plasma-purified) (P01024 749-954, chain 2 of 3): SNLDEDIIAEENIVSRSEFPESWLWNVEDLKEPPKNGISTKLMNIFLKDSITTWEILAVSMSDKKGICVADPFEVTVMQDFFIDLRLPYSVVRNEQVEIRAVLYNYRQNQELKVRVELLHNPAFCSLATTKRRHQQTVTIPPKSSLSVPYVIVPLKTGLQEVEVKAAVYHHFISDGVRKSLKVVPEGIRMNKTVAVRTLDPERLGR
Sequence of Human C3c (plasma-purified) (P01024 1321-1663, chain 3 of 3): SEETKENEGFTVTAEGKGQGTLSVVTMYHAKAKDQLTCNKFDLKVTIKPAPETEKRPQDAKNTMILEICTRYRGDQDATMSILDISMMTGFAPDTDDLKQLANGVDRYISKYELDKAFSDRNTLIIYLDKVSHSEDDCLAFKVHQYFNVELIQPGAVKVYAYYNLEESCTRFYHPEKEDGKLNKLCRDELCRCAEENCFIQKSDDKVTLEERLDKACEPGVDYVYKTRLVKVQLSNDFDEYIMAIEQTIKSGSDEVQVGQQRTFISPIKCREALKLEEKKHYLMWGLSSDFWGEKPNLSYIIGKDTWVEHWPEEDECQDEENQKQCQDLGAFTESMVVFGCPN
T9 sequence (P08603 19-1231 D1119G limits assumed): as the sequence (P08603 19-1231 limits assumed) above, with D1101G counted along it

Binder	rate of decay acceleration of C3b.Bb (SPR-based assay) [1] [fold]	inhibition of haemolysis of PNH-like erythrocytes by acidified normal human serum, IC50 [2] [nM]	binding result [3]	binding result [4]	binding result [5]	Kd [6] [nM]	Kd [7] [pM]	binding result [8]	binding result [9]	Kd [10]	binding result [11]	Kd [12] [pM]	Kd [13] [pM]	Kd [14] [nM]	Kd [15] [nM]
B1	~10	28	no binding	no binding	no binding										
B2						26	0.053	no binding (tested: 50 nM (from the legend))	no binding	1 nM and 2 nM	no binding	0.045	~0.05	0.012	1.3
